B1: TPR t1 (parent)
chain: GACCAAUCUGCCCUCAGAGCUCGAGAACAUCUUCGGAUGCAGAGGAGGCAGGCUUCGGUGGCGCGAUAGCGCCAACGUCCUCAACCUCCAAUGCAUCCCACCACAUGAUGAUGCCUGAAGAGCCUUGGUUUUUUG

21 variants from the RNAGym collection of RNA variant scans (doi:10.1073/pnas.2313332121) can be followed below.

In the data set the parent is B1. Kind of data set: polymerase ribozyme fitness, log enrichment relative to wild type (log ratio); higher = more active; in vitro selection for triplet polymerase activity. The essentials:
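PCR was used to build mutant libraries for each subunit of a heterodimeric triplet polymerase ribozyme, which were then transcribed. A single in vitro selection round, in triplicate, used a frozen incubation at −7 °C and recovered extended constructs by gel excision, streptavidin beads and RT-PCR. Fitness is the logarithm of genotype enrichment relative to wild-type enrichment, averaged over replicates with inverse-variance weights. The logarithm is base 2, and after Illumina sequencing only genotypes with ≥10 input reads and ≥1 read per output were kept.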
In the case of GACCAAUCUGCCCUCAGAGCUCGAGAAGAUCUUCGGAUGCAGAGGAGGCAGGCUUCGGUGGCUCGAUAGCGCCAACGUCCUCAACCUCCAAUGCAUCCCACCACAUGAUGAUGCCUGAAGAGCCUUGGUUUUUUG [C28G G63U], the “polymerase ribozyme fitness (log ratio)” value was -4.26.
The result for GACCAAUCUGCCCGCAGAGCUCGAGAACAUCUUCGGAUGCAGAGGAGGCAGGCUUCGGUGGCGCGAUGGCGCCAACGUCCUCAACCUCCAAUGCAUCCCACCACAUGAUGAGGCCUGAAGAGCCUUGGUUUUUUG [U14G A68G U112G] reads -5.15.
Consider GACCAAUCUGCCCUCAGAGCUCGAGAACAUCUUCGGAUGCAGUGGAGGCAGGCUUCGGUGGCGCGAUAGCGCCAACGUCCUCAACCGCCAAUGCAUCCCACCACAUGAUGAUGCCUGAAGAGCCUUGGUUUUUUG [A43U U87G], for which the “polymerase ribozyme fitness (log ratio)” value is -1.43.
For GACCAAUCUGCCCUCAGAGCUCGAGAACAUCUUAGGAUGCAGAGGAGGCAGGCUUCGGUGGCGCGAUAGCGCCAACGUCCUCAACCUCCAAUGCUUCCCACCACAUGAUGAUGCCUGAAGAGCCUUGGUUUUUUG [C34A A95U], the “polymerase ribozyme fitness (log ratio)” value was -3.54.
The figure for GACCUAUCUGCCCUCAGAGCUCGAGAACAUCUUCGGAUGCAGAGGAGGCAGGCUUCGGUGGCGCGAUAGCGCCAACGUCCACAACCUCCAAUGCAUCCCACCACAUGAUGAUGCCUGAAGAGCCUUGGUUUUUUG [A5U U81A] is -1.15; for GACCAAUCUGCCCUCAGAGCUUGAGAACAUCUUCGGAUGCAGAGGAGGUAGGCUUCGGUGGCGCGAUAGCGCCAACGUCCUCAACCUCAAAUGCAUCCCACCACAUGAUGAUGCCUGAAGAGUCUUGGUUUUUUG [C22U C49U C89A C123U] it is -6.02.
Regarding GACCAAUCUGCCCUCAGAGCUCGAGAACAUCUUCGGAUGCAGAGGAGGCAGGCUUCGGUGGCCCGAUAGCGCCAACGUCCUCAACCUCCAAUGCAUCCCACCACAUGUUGAUGCCUGAAGUACCUUGGUUUUUUG [G63C A108U A121U G122A], the “polymerase ribozyme fitness (log ratio)” value was -7.45.
As to GACCAAUCUGCCCUCAGAGCUCGAGAACAUCUUCGGAUGCAGAGGAGGCAGGCUUAGGUGGCGCGAUAGCGCCAACGACCUCAACCUCCAAUGCAUCCCACCACAUGAUGAUGCCUGAAGAGCCUUGGUUUUUUG [C56A U78A], the “polymerase ribozyme fitness (log ratio)” value was 0.796.
The result for GACCAAUCUUCCCUCAGAGCUCGAGAACAUCUUCGGAUGCAGAGGAGGCAGGCUUCGGUGGCGCGAUAGCGCAAACGGCCUCAACCUCCAAUGCAUCCCACCACAUGAUGGUGCCUGAAGAGCCUUGGUUUUUUG [G10U C73A U78G A111G] reads 0.173.
Turning to GACCAAUCUGCCCUCAGAGCUCGAGAACAUCUUCGGGUGCAGAGGGGGCAGGCUUCGGUGGCGCGAUAGCGCCAACGUCCUCCACCUCCAAUGCAUCCCACCACAUGAUGAUGCCUGAAGAGCCUUGGUUUUUUG [A37G A46G A83C], the “polymerase ribozyme fitness (log ratio)” value is -2.03.
For the variant GAACAAUUUGCCCUCAGAGCUCGAGAACAUCUUCGGAUGCAGAGGAGGCAGGCUUCGGUGGCGCGAUAGCGCCAACGUCCUCAACCUCCAAUGCAUCCCACCACAUGAUGAUGCCUGAAGAGCCUUGGUUUUUUG [C3A C8U], the “polymerase ribozyme fitness (log ratio)” value was -1.3.
Consider GACCAAUCUGCCCUCAGAGCUCGAGACCAUCUUCGGAUGCAGAGGAGGCAGGCAUCGGUGGCGCGAUAGCACCAACGUCCUCAACCUCCAAUGCAUCCCACCACAUGAUGAUGCAUGAAGAGCCUUGGAUUUUUG [A27C U54A G71A C115A U129A], for which the “polymerase ribozyme fitness (log ratio)” value is -5.86.
The figure for GACCAAUCUGCCCUCAGAGCUCGAGAACAUCUUCGGAUGCAGAGGAGGCAGGCUUCGGUGGCGCGAUAGCGCCAACGUCCUCAACCUCCAAUGCAUCCUAUCACAUGAUGAUGCCUGAAGAGCCUUGGUUUUUUG [C99U C101U] is -2.29; for GACCAAUCUGCCCUCAGAGCUCGAGAACAUCUUCGGAUACAGAGGAGGCAGGCUUCUGUGGCGCGAUAGCUCCAACGGCCUCAACCUCCAAUGCAUCCCACCACAUGAUGAUGCCUGAAGAGACUUGGUUUUUUG [G39A G57U G71U U78G C123A] it is -0.79.
As for GACCAAUCUGCCCUCAGAGCUCGAGAACAUCUUCGGCUGCAGAGGAGGCAGACUUCGGUGGCGCGAUAUCGCCAACGUCCUCAACCUCCAAUGCAUCCCACCACAUGAUGAUGGCUGAAGAGUCUUGGUUUUUUG [A37C G52A G69U C114G C123U], the “polymerase ribozyme fitness (log ratio)” value was -2.89.
For the variant GACCAAUCUGCCCUCAGAGCUCGAGAACAUCUUCGGAUGCAGAGGAGGCAGGCUUCGGUGGCGCGAUAGCGCCAACGUCCUCAACCUCCAAUGCAUCCCACCACAUGAUGAGGCCUGAAGAGCCUUGGUAUUUUG [U112G U130A], the “polymerase ribozyme fitness (log ratio)” value was 0.613.
The result for GACCAAUCUGCCCUCCGAGCUCGAGAACAUCUUCGGAUGCAGAGGAGGCAGGCUUCGGUGGCGCGAUAGCGCCAACGUCCUGAACCUCCAAUGCAUCCCACCACAUGAUGAUGCCUGAACAGCCUUGGUUUUUUG [A16C C82G G120C] reads -1.47; that for GACCUAUCUGCCCUCAGAGCUCGAGAACAUCUUCGGAUGCAGAGGAGGCAGGCUUCGGUGACGCGAUAGCGCCAACGUCCUCAACCUCCAAUGCAUCCCACCACAUGAUGAUGCCUGAAGAGCCUUGGUUUUUUG [A5U G61A], -0.0027; that for GACCAAUCUGCCCUCAGAGCUCGAGAACAUCUUCGGAUGCAGAGGAGGCAGGCUUCGAUGGCUCGAUAGCGCCAACGUCCUCAACCUCCAAUGCAUCCCACCACAUGAUGAUGCCUGGAGAGCCUUGGUUUUUUG [G58A G63U A118G], -0.392.
As to GACCAAUCUGCCGUCAGAGCUCGAGAACAUCUUAGGAUGCAGAGGAGGCAGGCUUCGGUGGCGCGAUAGCGCCAACGUCCUCAACCUCCAAUGCAUCCCACCACAUGAUGAUGCCUGAAGAGCCUUGGUUUUUUG [C13G C34A], the “polymerase ribozyme fitness (log ratio)” value was -4.26.
On to GACCAAUCUGCACUCAGAGCUCGAGAACAUCUUCGGCUGCAGAGGAGGCAGGCUUCGGUGGCGCGAUAGCGCCAACGUCCUCAACCUCCAAUGCAUCCCACCACAUGAUGAUGCCUGAAGAGCCUUGGUUUUUUG [C12A A37C], for which the “polymerase ribozyme fitness (log ratio)” value is -1.93.
